Experimental data: PMC3256231

Assays:
[1] = target: M protein M3.22 (Streptococcus pyogenes); assay: radioligand binding; 250 µl of streptococci (10^8 bacteria per ml in PBS with 0.05% Tween 20), before and after hyaluronidase treatment, incubated 45 min with 30 ng (100,000 cpm) of 125I-labelled collagen IV; washed, radioactivity of the pellet counted; cut-off 20% bound ligand
[2] = target: M protein stG120.1 (Streptococcus dysgalactiae subsp. equisimilis); assay: as above
[3] = target: human collagen IV (immobilized, SPR) (human) (UniProt P02462); assay: SPR; human collagen IV immobilised (400 RU); recombinant M proteins injected for 2 min at 60 µl/min; apparent constants, Langmuir model for 1:1 interactions (BiaEvaluation 3.0)

“125I-labelled collagen IV (from human placenta, Sigma-Aldrich) (from UniProt P02462 173-1669; P08572 184-1712) (complex)” gave a percent of the added collagen IV bound (% of the added collagen IV) [1] greater than 20 and a percent bound ligand (% bound ligand) [2] of 56.

For “recombinant M protein stG2078 (natural protein)”, the SPR response [3] was less than 4 RU.

“recombinant M protein M55 (from UniProt Q54840 1-550) (natural protein)” was tested, and the Kd [3] was 5 nM.

“recombinant M protein M31.5 (natural protein)” gave a Kd [3] of 0.6 nM.
